Where no end group is shown, it is not given here.
B1: aSyn (61–95) BiFC fusion: aSyn residues 61–95, 17-residue linker, N-terminal or C-terminal fragment of Venus (domain or fragment)
chain: not shown
notes: alpha-synuclein (aSyn), residues 61-95, the non-amyloid-B component (NAC) region, 35 amino acids; 17-amino acid linker between the protein of interest and the Venus fragment; One molecule stands for both constructs, aSVN (Venus 1-173) and aSVC (Venus 155-239); the label in each row tells which was used; A start methionine and residues coded by the restriction sites are not described; also called …
B2: IAPP BiFC fusion: human IAPP, 17-residue linker, N-terminal or C-terminal fragment of Venus (peptide)
chain: KCNTATCATQRLANFLVHSSNNFGAILSSTNVGSNTYRPACKIPNDLKQKVMNH
modifications: cysteine pairing not given here; also: fused to N- or C-terminal Venus fragment, not in chain
notes: human islet amyloid polypeptide (IAPP), the 37-amino acid long peptide cut from proIAPP; 17-amino acid linker between the protein of interest and the Venus fragment; One molecule stands for both constructs, IVN (Venus 1-173) and IVC (Venus 155-239); the label in each row tells which was used; a start methionine is not described; also called IVN; IVC; source: HEK293, transfected (pcDNA3.1 zeo+), …

Target: the molecule itself
Assay: split reporter (BiFC, NanoBiT); BiFC with split Venus in transfected HEK293 cells; percent of fluorescent cells by flow cytometry (Accuri C6 plus) 24 h after transfection

Row | Protein | percent of cells with a fluorescent BiFC signal [%]
1 | B1 | 29.3
2 | B2 | 19.7

Reference: paper PMC9922763 (Frontiers in Molecular Biosciences, 2023)
